Read-outs that look alike come from different tables or passages of the source.
Tests used:
Assay in all cases: co-sedimentation
[1] = target: actin (mol wt = 43,000), platelet (human (endogenous in platelets)) (UniProt P60709)
[2] = target: actin (mol wt = 43,000), platelet (human (endogenous in platelets)) (UniProt P60709); remark: listed apart in the source
[3] = target: actin (mol wt = 43,000), platelet (human (endogenous in platelets)) (UniProt P60709); remark: listed apart in the source
[4] = target: actin (mol wt = 43,000), platelet (human (endogenous in platelets)) (UniProt P60709); remark: listed apart in the source

platelet membrane glycoprotein III, sequence (P05106 27-788): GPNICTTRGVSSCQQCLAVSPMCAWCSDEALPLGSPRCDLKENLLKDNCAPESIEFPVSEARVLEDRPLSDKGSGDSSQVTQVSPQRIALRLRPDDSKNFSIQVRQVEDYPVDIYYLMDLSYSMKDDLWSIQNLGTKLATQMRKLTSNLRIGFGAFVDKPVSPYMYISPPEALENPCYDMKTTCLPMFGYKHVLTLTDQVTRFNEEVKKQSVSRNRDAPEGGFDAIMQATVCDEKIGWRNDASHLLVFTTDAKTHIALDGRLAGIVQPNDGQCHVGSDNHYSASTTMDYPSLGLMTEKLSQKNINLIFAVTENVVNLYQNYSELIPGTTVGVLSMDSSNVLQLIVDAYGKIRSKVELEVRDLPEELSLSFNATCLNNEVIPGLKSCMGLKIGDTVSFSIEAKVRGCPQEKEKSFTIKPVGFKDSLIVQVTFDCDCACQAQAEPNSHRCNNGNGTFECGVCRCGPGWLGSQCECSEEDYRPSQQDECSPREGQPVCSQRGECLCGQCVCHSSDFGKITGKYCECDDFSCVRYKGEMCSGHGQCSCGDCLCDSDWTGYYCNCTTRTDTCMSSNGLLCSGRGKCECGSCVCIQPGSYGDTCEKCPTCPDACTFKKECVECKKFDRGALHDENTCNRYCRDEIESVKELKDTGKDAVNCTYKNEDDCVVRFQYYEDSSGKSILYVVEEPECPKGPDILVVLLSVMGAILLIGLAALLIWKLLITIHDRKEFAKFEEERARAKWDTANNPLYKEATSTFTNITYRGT
platelet membrane glycoprotein IIb (receptor), sequence (P08514 32-1039): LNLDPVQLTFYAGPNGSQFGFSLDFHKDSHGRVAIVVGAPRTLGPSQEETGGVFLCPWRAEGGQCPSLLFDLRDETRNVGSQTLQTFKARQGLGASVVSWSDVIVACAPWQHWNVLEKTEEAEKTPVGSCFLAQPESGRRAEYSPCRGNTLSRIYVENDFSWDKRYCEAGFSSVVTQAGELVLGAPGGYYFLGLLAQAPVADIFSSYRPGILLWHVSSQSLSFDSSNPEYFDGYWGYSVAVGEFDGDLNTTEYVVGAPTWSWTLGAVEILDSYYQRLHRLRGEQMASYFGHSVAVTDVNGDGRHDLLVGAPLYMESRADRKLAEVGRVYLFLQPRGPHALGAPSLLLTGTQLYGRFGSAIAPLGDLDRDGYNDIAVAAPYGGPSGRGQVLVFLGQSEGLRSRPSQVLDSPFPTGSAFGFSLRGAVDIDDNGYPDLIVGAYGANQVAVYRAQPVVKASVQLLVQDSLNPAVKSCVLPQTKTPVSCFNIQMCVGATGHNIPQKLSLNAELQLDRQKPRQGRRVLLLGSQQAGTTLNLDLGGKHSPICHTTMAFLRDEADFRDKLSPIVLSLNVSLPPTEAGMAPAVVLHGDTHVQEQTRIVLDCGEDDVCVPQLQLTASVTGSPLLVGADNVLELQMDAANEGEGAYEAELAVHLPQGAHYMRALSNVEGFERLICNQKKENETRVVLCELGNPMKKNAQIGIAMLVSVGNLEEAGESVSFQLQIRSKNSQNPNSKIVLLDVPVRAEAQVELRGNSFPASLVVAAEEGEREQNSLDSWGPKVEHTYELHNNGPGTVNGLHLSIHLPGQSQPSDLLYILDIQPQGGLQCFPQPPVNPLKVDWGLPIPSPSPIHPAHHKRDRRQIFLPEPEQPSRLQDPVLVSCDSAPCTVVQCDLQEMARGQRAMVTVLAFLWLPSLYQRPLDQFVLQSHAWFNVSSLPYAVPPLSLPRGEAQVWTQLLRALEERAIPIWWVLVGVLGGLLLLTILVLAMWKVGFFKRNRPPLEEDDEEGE

Row | percent of the glycoprotein in the Triton residue [1] | percent of the glycoprotein in the Triton residue [2] | percent of the glycoprotein in the Triton residue [3] | percent of the glycoprotein in the Triton residue [4] | percent of the protein in the Triton residue [1] | percent of the protein in the Triton residue [4] | Substance
1 | 7.2% | 3.7% | 5.4% | 26.1% |  |  | platelet membrane glycoprotein IIb (receptor)
2 | 3.4% |  | 2.4% | 14.3% |  |  | platelet membrane glycoprotein III (from UniProt P05106 27-788) (receptor)
3 |  |  |  |  | 34.5% | 55.2% | 255,000 protein (actin-binding protein), platelet (from UniProt P21333 1-2647) (natural protein)
